Experimental data reported in patent US9119806B2, “Culturing circular ssDNA viruses for the production of vaccines” (priority 2007, dated 2015).

How the values were obtained:
PCV2 in PK-15 cells = assay: Progeny PCV2 virus production in PK-15 cells with IFN-gamma; type: cell-based, Porcine circovirus 2
Method: The influence of IFN-gamma on the production of progeny virus in PCV2-infected cells was determined by inoculating PK-15 cells with the standard PCV2-stock. After the inoculation, culture medium was added supplemented with IFN-gamma (500 U/ml). At 0, 12, 24, 36, 48 and 72 hours post inoculation (hpi) the supernatant was collected. Subsequently the culture was washed once with 1 ml PBS. Both the supernatant and the washing fluid were centrifuged for 10 minutes at 15,000×g to pellet cells and debris. The centrifuged supernatant and washing fluids were combined and considered to contain the extracellular virus. Both pellets and cell cultures were freeze-thawed tree times and considered to contain the intracellular virus. Intra- and extracellular virus titres were determined by titration on PCV-negative PK-15 cells as described previously.

[1] = test system: PCV2 proteins in PK-15 cells; assay: Expression kinetics of PCV2 proteins (capsid, REP) in PK-15 cells, immunofluorescence; type: cell-based, Porcine circovirus 2
Method: To determine the timing and localisation of PCV2 proteins expression (Capsid protein and REP), PK-15 cells were seeded on glass cover slips and inoculated with PCV2. After inoculation, culture medium was added with or without 500 U/ml IFN-gamma. At 0, 12, 24, 36, 48 and 72 hpi the cells were fixed in methanol at −20° C. Afterwards, a triple immunofluorescence staining was performed to visualize both viral proteins and the cell nucleus. PCV2 capsid protein was detected using purified biotinylated porcine polyclonal anti-PCV2 immunoglobulins which only react with PCV2 capsid proteins. Bound porcine immunoglobulins were visualized with streptavidin conjugated Texas Red (molecular probes, Leiden, The Netherlands). In a second step, the REP protein was detected with a specific mouse monoclonal antibody (F210) visualized with goat-anti-mouse FITC (molecular probes, Leiden, The Netherlands). In a final step, the nuclei of the cells were visualized with Hoechst 33342 (Molecular Probes, Oreg., USA) at a concentration of 0.1 mg/ml. The number of cells with capsid and/or REP protein was counted and the localisation of viral antigens was monitored by fluorescence microscopy.

[2] = test system: PCV2 capsids on 3D4/31 cells; assay: Attachment of PCV2 capsids (virion-like particles) on 3D4/31 cells; type: cell-based, Porcine circovirus 2; conditions: 4° C., 0-60 minutes
Method: The attachment of PCV2 capsids onto untreated 3D4/31 cells and 3D4/31 cells pre-treated with IFN-gamma was studied as described by Misinzo et al. (J Gen Virol. conditionally accepted for publication). Briefly, treated and untreated 3D4/31 cells were chilled on ice and washed before PCV2 capsids were added and allowed to attach for 0, 1, 5, 10, 15, 30 and 60 minutes at 4° C. Unbound PCV2 capsids were washed-off and cells were fixed with 3% (w/v) paraformaldehyde in phosphate-buffered saline with calcium and magnesium (PBS+) at room temperature for 10 minutes. In order to stain the PCV2 capsids, cells were incubated with biotin-conjugated anti-PCV2 swine polyclonal antibodies and streptavidin-FITC (Molecular Probes, Leiden, The Netherlands) for 1 hour at room temperature. The slides were mounted and analysed by acquisition of digital images of stained PCV2 capsids using a Leica TCS SP2 laser scanning spectral confocal system (Leica Microsystems GmbH, Heidelberg, Germany) linked to a Leica DM/IRB inverted microscope (Leica Microsystems GmbH, Wetzlar, Germany). Successive images from the apex to the base of a single cell were taken and merged. The number of PCV2 capsids attached per cell was counted for ten cells at each time point to establish their binding kinetics into 3D4/31 cells.

[3] = test system: PCV2 capsids in 3D4/31 cells; assay: Entry (internalization) of PCV2 recombinant capsids in 3D4/31 cells; type: cell-based, Porcine circovirus 2; conditions: 3D4/31 cells treated with IFN-gamma
Method: To study the internalization of recombinant capsids on 3D4/31, cells were washed with RPMI-1640 at 37° C. and then incubated with capsids at 37° C. for 15 minutes followed by washing of unbound capsids. Cells were then fixed with a 3% solution of paraformaldehyde (rPBS) for 10 minutes at 30, 60 and 120 minutes since the addition of capsids into the cells, washed with PBS, and permeabilized in a 0.1% Triton X-100 solution in rPBS. Capsids were stained by incubating the calls with a biotin-conjugated anti-PCV2 swine polyclonal antibody followed by streptavidin-FITC (Molecular Probes, Eugene, Oreg.).

EMC virus = conditions: porcine PK-15 cells infected with EMC virus; supplier leaflet, typical; cited from earlier work
[4] = treated (500 U/ml) and non-treated PK-15 cells

B1: IFN-gamma: Porcine interferon gamma purchased from R&D systems (protein, UniProt P17803 24-166, looked up)
Interferon gamma: QAPFFKEITILKDYFNASTSDVPNGGPLFLEILKNWKEESDKKIIQSQIVSFYFKFFEIFKDNQAIQRSMDVIKQDMFQRFLNGSSGKLNDFEKLIKIPVDNLQIQRKAISELIKVMNDLSPRSNLRKRKRSQTMFQGQRASK
total PCV2 production higher compared to non-treated cells (PCV2 in PK-15 cells; 500 U/ml after inoculation, 72 hpi): 1.3 log10 TCID50 | extracellular and intracellular virus production (in words) (PCV2 in PK-15 cells; 500 U/ml, compared to non-treated control cells): increased | influence on sequence of events of PCV2 protein expression (in words) ([1]; PK-15, 500 U/ml after inoculation): did not influence | first nuclear localisation of both proteins ([1]; both cultures): 24 hpi | first detection of REP protein [1, 4]: 24 hpi | first detection of capsid protein [1, 4]: 12 hpi | number of attached virion-like particles per cell and binding kinetics (in words) [2]: No differences were observed | number of internalized virions (in words) [3]: significant increase | ED50 for anti-viral effect (EMC virus): 0.015 to 0.045 ng/mL
